Laboratory results as given in the supplement of paper PMC10266784.

B1: library; numbered along this chain (parent)
chain: MAAAAAAAAEQQSSNGPVKKSMREKAVERRSVNKEHNSNFKAGYIPIDEDRLHKTGLRGRKGNLAICVIILLFILAVINLIITLVIWAVIRIGPNGCDSMEFHESGLLRFKQVSDMGVIHPLYKSTVGGRRNENLVITGNNQPIVFQQGTTKLSVENNKTSITSDIGMQFFDPRTQNILFSTDYETHEFHLPSGVKSLNVQKASTERITSNATSDLNIKVDGRAIVRGNEGVFIMGKTIEFHMGGNMELKAENSIILNGSVMVSTTRLPSSSSGDQLGSGDWVRYKLCMCADGTLFKVQVTSQNMGCQISDNPCGNTH

Variants of: B1
Test: SGCB cell-surface expression functional score (HA stain, bin4 vs bin1, normalised to synonymous) (log10 ratio); higher = more cell-surface SGCB (functional)
Procedure: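 Deep mutational scan of full-length human SGCB (YFP-SGCB-HA, NNN codon sublibraries A-F) delivered by lentivirus at low MOI into ADG-HEK293 cells stably expressing SGCA, SGCD and SGCG. YFP-positive cells were stained for surface HA on unpermeabilized cells and FACS-sorted into bins. The functional score is log10(frequency in high bin 4 / frequency in low bin 1), normalised per chunk so that synonymous variants have mean 0 and SD 0.5. Scores are the median over codons and over duplicate biological replicates; scores below -0.5 are called non-functional. Scale: negative means deleterious.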

SGCB cell-surface expression functional score (log10): each site, then its substitutions
F102: S -1.18 | Q -1.39 | C -1.3 | K -1.02 | R -1.14 | E -1.93 | W -0.12 | G -0.51 | M -0.45 | H 0.01 | L -0.5 | N -1.53 | Y -1.16 | T -1.16 | P -1.4 | V -1.57 | I -1.26 | D -0.88 | A -1.01
G96: F -2.5 | D -2.13 | T -1.72 | N -2.04 | K -2.21 | I -1.54 | V -1.95 | S -1.81 | A -1.24 | W -0.61 | P -1.62 | Q -2.14 | L -2.08 | H -1.77 | R -1.51 | E -1.89 | Y -2.29 | C -1.66 | M -1.68
E104: W -0.09 | S 0.39 | T 0.51 | C 0.35 | G -0.1 | K 0.13 | I 0.01 | V 0 | D 0.17 | N -0.11 | Q 0.18 | P 0.47 | R 0.26 | H 0.28 | L -0.18 | Y 0.03 | A 0.22 | F -0.24 | M 0.11
L107: F -0.29 | R -0.36 | A -0.67 | I 0.27 | D -0.74 | Q 0 | H -0.67 | C 0.24 | E -1.14 | G -0.26 | K -0.53 | W -0.39 | S -0.46 | P -0.47 | V -0.21 | N -0.13 | T -0.34 | Y -0.27 | M 0.24
D98: N -0.3 | C -0.07 | H 0.4 | R -0.16 | Y -0.66 | I -1 | F -0.64 | K -0.4 | S 0.3 | G -0.2 | V -0.14 | E -0.21 | T 0.06 | A 0.32 | P -0.12 | Q -0.02 | L 0.1 | W -0.73 | M 0.01
N95: R -0.09 | F 0.3 | T -0.1 | V -0.38 | E 0.05 | A 0.01 | W 0.34 | M 0.68 | I -0.83 | Q -0.12 | L -0.06 | D -0.24 | K 0.16 | G 0.21 | C -0.17 | P -1.26 | S 0.16 | Y 0.15 | H -1.18
S99: W -0.35 | H -0.65 | T -0.4 | M 0.21 | R -1.61 | V 0.15 | Y 0.12 | Q -2.34 | C -0.72 | F 0.86 | N -0.77 | I -0.54 | E -1.96 | P -0.38 | K -1.57 | L 0.18 | G -0.07 | A -0.01 | D -1.16
M100: Q -1.26 | I -0.14 | S -2.02 | N -2.37 | P -2.03 | R -1.19 | K -2.02 | G -1.04 | D -1.82 | A -1.33 | C -1.81 | Y -2.14 | V -0.03 | F -0.46 | H -1.39 | W -1.82 | T -1.55 | E -1.92
L108: Q -1.27 | M 0.07 | P -1.13 | F -1.87 | H -0.95 | D -1.53 | N -2.59 | E -1.58 | C 0.01 | I 0.03 | K -1.85 | A -0.07 | G -0.9
S105: Y 0.11 | F -0.75 | M -0.33 | E -0.29 | I -0.75 | V -0.62 | Q -0.11 | R -0.4 | G -0.15 | H 0 | D 0.04 | A -0.09 | N -0.63 | T -0.09 | K -0.5 | L -0.66 | P -1.03 | W 0.26 | C -0.21
G106: E -0.58 | H -0.43 | D -0.65 | C -1.9 | F -1.86 | Y -1.15 | V -1.47 | K -0.63 | Q -1.48 | L -1.62 | T -0.86 | M -0.94 | N -0.38 | A -0.24 | R -0.35 | S -0.78 | I -1.82 | P -1.85 | W -0.87
G93: H 0.32 | F -1.18 | M -1.49 | D -0.19 | K -0.15 | S -0.25 | A -0.97 | T 0.23 | I -2.15 | N -0.14 | C -1.43 | Y -1.86 | W -0.45 | R -0.4 | V -1.79 | P -1.64 | Q -0.8 | L -1.84 | E -1.2
I92: V -0.31 | C -1.75 | Q -1.97 | T -1.03 | A -1.94 | N -1.68 | D -2.38 | R -1.46 | M -0.21 | W -2.43 | H -1.9 | L -0.39 | S -2.23 | E -2.15 | P -1.96 | F -0.74 | G -0.75 | Y -2.16 | K -1.31
H103: I -0.36 | G 0.07 | V 0.29 | K -0.02 | C -0.1 | M -0.23 | S 0.06 | N 0.13 | F -0.14 | L 0.33 | P -0.42 | E -0.33 | T 0.65 | A 0.32 | Y -0.3 | W 0.06 | D 0 | Q 0.36 | R 0.14
C97: M -0.29 | K -1.3 | H -2.29 | A -0.14 | P -0.47 | V 0.16 | F -1.5 | N -1.16 | Q -1.14 | I 0.31 | E -1.87 | Y -1.89 | L 0.37 | T -0.03 | D -2.33 | S -0.18 | G -1.91 | R -1.75 | W -1.46
P94: E -0.29 | V -0.24 | A 0.03 | G -0.25 | S -0.11 | R -0.65 | W 0.26 | K 0.29 | N -0.88 | M 0.27 | C -0.07 | T -0.07 | H 0.01 | L -0.17 | D -1.08 | Y 0.29 | I -0.61 | F 0.24 | Q 0.21
E101: T -0.54 | K -0.77 | Q -0.15 | M -0.63 | I -0.3 | Y -0.43 | F -0.8 | S -0.39 | C -1.14 | W -1.04 | N -1.22 | V -0.43 | L -0.35 | H -1.14 | D -0.49 | G -0.26 | R -0.59 | A -0.15 | P -1.78
R91: W -1.69 | C -0.72 | M -1.94 | D -1.32 | L -1.93 | K 0.34 | P -1.76 | V -1.43 | S -0.79 | N -0.75 | G -0.52 | T -2.04 | E -0.8 | Y -1.94 | I -1.85 | H 0 | Q 0.15 | F -1.71
